Measured values: US8420776B2, “Ube2G2 binding domain in the ubiquitin ligase gp78 and methods of use thereof” (The United States of America, as Represented by the …, priority 2004, dated 2013)

Assays:
ERAD substrate CD3-δ = test: CD3-δ level in co-transfected cells by immunoblotting; format: cell-based; conditions: for reversal of G2BD-induced CD3-δ stabilization by co-transfected Ube2G2: cells expressing Flag-tagged gp78 574-643, 2 or 4 μg Ube2G2 plasmid; for effect on CD3-δ level (stabilization): co-transfection with CD3-δ, immunoblot
Protocol: (§1) Transfections of HT1080, NIH 3T3 and HEK 293T cells were carried out ˜24 hr after plating using Polyfect (Qiagen, Valencia, Calif.) and cells harvested after ˜48 hr. J558 cells were transfected by electroporation using Bio-rad GENE pulser II at settings of 250 v, 950uF. Vector without insert was used to equalize total plasmid. In most experiments 0.15 μg of pEGFP-C1 served as an internal control. For experiments not involving immunoprecipitation, 6×10^5 cells were plated in 6 well plates and cell lysis was with Mammalian Protein Extraction Reagent (Pierce). For immunoprecipitation, 2.4×10^6 cells were seeded in 100 mm dishes and cells were lysed in RIPA buffer (1×PBS, 1% Nonidet P40. 0.5% sodium deoxycholate, 0.1% SDS). Lysis buffers were supplemented with Protease Inhibitor Cocktail (Sigma) and 10 mM iodoacetamide. Supernatants were analyzed after a 10,000×g centrifugation using standard techniques for immunoprecipitation, SDS-PAGE, immunoblotting and ECL. Treatment of cells with MG132 (Sigma) was at 50 μM for eight hr. Cycloheximnide was used at 50 μg/ml. All cells were collected at the end of the six hr chase.
FIG. 7 depicts the stabilization of CD3-δ protein in cells transfected with the G2BD, but not with the G2BD with amino acids 579-584 (of SEQ ID NO:2) mutated. HEK 293T cells were transfected with the ERAD substrate CD3-δ along with the indicated GFP fusions of gp78. The left and right sides are two separate experiments.
To test this, GFP fusions of either a minimal E2 binding domain (GFP-574-611) or a more extended region that includes the C-terminus of gp78 (GFP-574-643) were evaluated (FIG. 21A). […] To assess this further, the C-terminal region of gp78 was fused to the eight amino acid Flag tag. […] Mdm2 is a RING finger E3 for both itself and p53 that is neither an ERAD substrate nor known to utilize Ube2G2 as an E2. […] To establish with certainty that the effect observed with expression of the Ube2G2 binding site is a consequence of binding endogenous E2, and not due to other unanticipated effects, cells were co-transfected with increasing amounts of Ube2G2 (FIG. 21C, lanes 3 and 4). […] These findings clearly establish that the isolated E2 binding site has the potential to markedly alter ERAD of CD3-δ. To ensure the effect observed was not peculiar to one substrate, TCR-α was evaluated (FIG. 21D).

[1] = target: T1, lysine 48-linked (K48) tetra-ubiquitin (Homo sapiens, UniProt P0CG47); test: Tetra-ubiquitin binding to GST fusions; conditions: anti-ubiquitin immunoblot
T1 construct: 1 μg K48 tetra-ubiquitin produced as described (Piotrowski et al., 1997); made in house
Protocol: GST fusions were purified from E. Coli. Binding was carried out using equi-molar amount of fusion proteins measured by Commassie blue staining. Generally, 20 picomoles/sample were used. In vitro translated E2 was generated by coupled transcription and translation using 35S methionine in either wheat germ or rabbit reticulocyte lysate. Binding assays using in vitro translated E2 was carried out by incubating GST protein pre-bound to Glutathione-sepharose 4B with […] of ^35S-methionine labeled E2 in binding buffer (25 mM Tris-HCl, pH 7.4; 50 mM NaCl, 5 mM DTT; and 0.5% NP-40) overnight at 4° C. Beads were washed with binding buffer and resolved by SDS-PAGE under reducing conditions. Analysis was by Storm PhosphoImager (Applied Biosystems, Foster City, Calif.). Direct binding assays used wild type His6-MmUbc7 (His6-Ube2G2) and Glutathione-sepharose bound GST fusions. Beadbound GST protein was incubated with 100 ng purified His6-MmUbc7 in binding buffer and washed and eluted as above. After transfer to Hybond-P (Amersham Biosciences) binding was assessed with anti-His6 followed by Enhanced Chemiluminescence ECL; Pierce). Ubiquitin binding studies were performed with binding and washing as above using 1 μg K48 tetra-ubiquitin produced as described (Piotrowski et al., 1997). Detection was by anti-ubiquitin immunoblotting.

Myc-Ube2G2 = target: T2, Myc-Ube2G2 (Mus musculus, UniProt P60605); test: Co-immunoprecipitation with co-expressed Myc-Ube2G2 in cells; format: cell-based; conditions: anti-Myc IP, anti-gp78 IB; MG132 8 hr
T2 construct: expressed in transfected cells; host or cells: HEK 293T
T2 sequence (P60605 1-165): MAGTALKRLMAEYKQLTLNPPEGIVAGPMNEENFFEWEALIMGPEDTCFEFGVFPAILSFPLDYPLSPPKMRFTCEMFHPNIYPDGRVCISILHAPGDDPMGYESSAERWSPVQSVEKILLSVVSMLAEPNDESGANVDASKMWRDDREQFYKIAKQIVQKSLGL
Protocol: as §1
FIG. 5 depicts the results of immunoprecipitation of Ube2G2 (MmUbc7) from HEK 293T cells co-transfected with a plasmid encoding myc-tagged MmUbc7/Ube2G2 together with s plasmid encoding various forms of gp78. HEK 293T cells were transfected with a plasmid encoding myc-tagged MmUbc7/Ube2G2 together with plasmids encoding various forms of gp78. After 48 hours, cells were harvested and co-immuntoprecipitated with an anti-Myc tage. Anti-gp78 was used for detection. “R2M” indicates a mutation of two crucial residues in the RING finger. “T” indicates C terminal truncations at the indicated amino acids. ΔB is the mutation indicated above in FIG. 4 in the context of the full length gp78 and “Cue12M” indicates mutations in the Cue domain of gp78.
To confirm the significance of the Ube2G2 binding site in cells, a variety of mutations and truncations of full-length gp78 were tested for binding of co-expressed Myc-Ube2G2 (FIG. 19A). Cells were treated with the proteasome inhibitor MG132 in an attempt to equalize levels of the various forms of gp78.

B1: Ube2G2: ubiquitin conjugating enzyme Ube2G2 expressed from co-transfected plasmid (protein, listed as Homo sapiens)
chain: MAGTALKRLMAEYKQLTLNPPEGIVAGPMNEENFFEWEALIMGPEDTCFEFGVFPAILSFPLDYPLSPPKMRFTCEMFHPNIYPDGRVCISILHAPGDDPMGYESSAERWSPVQSVEKILLSVVSMLAEPNDESGANVDASKMWRDDREQFYKIAKQIVQKSLGL
Question: For B1, which “reversal of G2BD-induced CD3-δ stabilization by co-transfected Ube2G2” value (ERAD substrate CD3-δ) is on record?
Answer: dose-dependent reversal of CD3-δ stabilization

Question: And the “reversal of G2BD-induced CD3-δ stabilization by co-transfected Ube2G2” value (ERAD substrate CD3-δ; listed as Ube2G2/MmUbc7)?
Answer: reversed

B2: Cue-m1: GST fusion of complete C-terminal region of gp78 with MFP to GGR mutation of residues 467 to 469 (protein)
chain: IRRHKNYLRVVGNMEARFAVATPEELAVNNDDCAICWDSMQAARKLPCGHLFHNSCLRSWLEQDTSCPTCRMSLNIADNNRVREEHQGENLDENLVPVAAAEGRPRLNQHNHFFHFDGSRIASWLPSFSVEVMHTTNILGITQASNSQLNAMAHQIQEGGRQVPYHLVLQDLQLTRSVEITTDNILEGRIQVPFPTQRSDSIRPALNSPVERPSSDQEEGETSAQTERVPLDLSPRLEETLDFGEVEVEPSEVEDFEARGSRFSKSADERQRMLVQRKDELLQQARKRFLNKSSEDDAASESFLPLEGASSDPVTLRRRMLAAAAERRLQKQQTS
modifications: left off: a dimerising Fc or GST
Question: With B2 as the molecule, how does the “binding of K48 tetra-ubiquitin” value [1] read?
Answer: total loss of ubiquitin binding

B3: Cue-m2: GST-gp78 fusion with VLQDL to RLQVD mutation of residues 476 to 480 (protein)
chain: IRRHKNYLRVVGNMEARFAVATPEELAVNNDDCAICWDSMQAARKLPCGHLFHNSCLRSWLEQDTSCPTCRMSLNIADNNRVREEHQGENLDENLVPVAAAEGRPRLNQHNHFFHFDGSRIASWLPSFSVEVMHTTNILGITQASNSQLNAMAHQIQEMFPQVPYHLRLQVDQLTRSVEITTDNILEGRIQVPFPTQRSDSIRPALNSPVERPSSDQEEGETSAQTERVPLDLSPRLEETLDFGEVEVEPSEVEDFEARGSRFSKSADERQRMLVQRKDELLQQARKRFLNKSSEDDAASESFLPLEGASSDPVTLRRRMLAAAAERRLQKQQTS
modifications: left off: a dimerising Fc or GST
Question: B3 was tested. Which “binding of K48 tetra-ubiquitin” value [1] did it give?
Answer: total loss of ubiquitin binding

B4: 435-507: GST fusion of amino acids 435-507 of gp78, the Cue domain region (protein)
chain: SFSVEVMHTTNILGITQASNSQLNAMAHQIQEMFPQVPYHLVLQDLQLTRSVEITTDNILEGRIQVPFPTQRS
modifications: left off: a dimerising Fc or GST
notes: GST fusion of amino acids 435-507 of gp78, the Cue domain region
Question: With B4 as the molecule, how does the “binding of K48 tetra-ubiquitin” value [1] read?
Answer: sufficient to bind tetra-ubiquitin

B5: gp78576: gp78 truncated after amino acid 576 of SEQ ID NO:2 (protein, listed as Homo sapiens)
chain: MPLLFLERFPWPSLRTYTGLSGLALLGTIISAYRALSQPEAGPGEPDQLTASLQPEPPAPARPSAGGPRARDVAQYLLSDSLFVWVLVNTACCVLMLVAKLIQCIVFGPLRVSERQHLKDKFWNFIFYKFIFIFGVLNVQTVEEVVMWCLWFAGLVFLHLMVQLCKDRFEYLSFSPTTPMSSHGRVLSLLVAMLLSCCGLAAVCSITGYTHGMHTLAFMAAESLLVTVRTAHVILRYVIHLWDLNHEGTWEGKGTYVYYTDFVMELTLLSLDLMHHIHMLLFGNIWLSMASLVIFMQLRYLFHEVQRRIRRHKNYLRVVGNMEARFAVATPEELAVNNDDCAICWDSMQAARKLPCGHLFHNSCLRSWLEQDTSCPTCRMSLNIADNNRVREEHQGENLDENLVPVAAAEGRPRLNQHNHFFHFDGSRIASWLPSFSVEVMHTTNILGITQASNSQLNAMAHQIQEMFPQVPYHLVLQDLQLTRSVEITTDNILEGRIQVPFPTQRSDSIRPALNSPVERPSSDQEEGETSAQTERVPLDLSPRLEETLDFGEVEVEPSEVEDFEARGSRFSKSAD
Question: How did the “E2 association of full-length gp78 forms with co-expressed Myc-Ube2G2” value (Myc-Ube2G2) turn out when B5 was run?
Answer: loss of E2 binding

B6: GFP-574-643: GFP fusion of a more extended region that includes the C-terminus of gp78, residues 574-643 (protein, listed as Homo sapiens)
chain: SADERQRMLVQRKDELLQQARKRFLNKSSEDDAASESFLPLEGASSDPVTLRRRMLAAAAERRLQKQQTS
Question: B6 was tested. Which “effect on CD3-δ level (stabilization)” value (ERAD substrate CD3-δ) did it give?
Answer: dramatically stabilized CD3-δ

B7: Flag-tagged gp78 residues 574-643: C-terminal region of gp78 fused to the eight amino acid Flag tag (protein)
chain: SADERQRMLVQRKDELLQQARKRFLNKSSEDDAASESFLPLEGASSDPVTLRRRMLAAAAERRLQKQQTS
modifications: left off: small tags and cut ends
notes: C-terminal region of gp78 fused to the eight amino acid Flag tag
Question: Which “effect on CD3-δ level (stabilization)” value (ERAD substrate CD3-δ) does the source give for B7 here?
Answer: marked stabilization of CD3-δ
